Data as given in US20150231240A1, “ANTI-C16ORF54 ANTIBODIES AND METHODS OF USE THEREOF” (priority 2012, published 2015).

T1: human C16orf54 extracellular domain peptides (Homo sapiens, UniProt Q6UWD8)
T1 sequence (Q6UWD8 1-31): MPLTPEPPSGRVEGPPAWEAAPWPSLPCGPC

T2: human C16orf54 (Homo sapiens, UniProt Q6UWD8)
T2 construct: expressed in transfected cells; host or cells: murine sarcoma cells (D42M1-huC16orf54)
T2 sequence (Q6UWD8 1-224): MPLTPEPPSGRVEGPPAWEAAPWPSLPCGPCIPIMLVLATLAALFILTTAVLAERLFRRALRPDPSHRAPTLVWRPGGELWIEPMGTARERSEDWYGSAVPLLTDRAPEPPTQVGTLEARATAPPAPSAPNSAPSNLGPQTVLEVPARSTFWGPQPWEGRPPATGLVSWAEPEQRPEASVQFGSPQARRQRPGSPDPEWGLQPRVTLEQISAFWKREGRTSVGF

T3: huC16orf54 (cells expressing C16orf54) (Homo sapiens, UniProt Q6UWD8)
T3 construct: expressed in transfected cells; host or cells: murine sarcoma cell line, retrovirally transduced (inferred from b529 and b531; b587 says only 'cells expressing C16orf54')
T3 sequence (Q6UWD8 1-224): T2 sequence (Q6UWD8 1-224)

T4: N-terminal 32 amino acids of huC16orf54 (Homo sapiens, UniProt Q6UWD8)
T4 sequence (Q6UWD8 1-32 limits assumed): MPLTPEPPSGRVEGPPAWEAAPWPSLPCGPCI

T5: extracellular domain of c16orf54 (amino acids 1-31) fused to human IgG1 Fc (Homo sapiens, UniProt Q6UWD8)
T5 construct: the extracellular domain of c16orf54 (amino acids 1-31) either N terminal or C-terminal to a human IgG1 Fc domain; made in house; host or cells: 293 T cells, transient; Protein A purification
T5 sequence (Q6UWD8 1-31 limits assumed): T1 sequence (Q6UWD8 1-31)

B1: R29-8-58C: murine anti-C16orf54 monoclonal antibody; VH SEQ ID NO: 40, VL SEQ ID NO: 42 (antibody, V domains shown)
VH: MNFGFSLIFLVLVSKGVQCEVKLVESGGGLVKPGGSLKFSCAASGFTFSSYAVSWVRQTPEKRLEWVASITSGGRSYYPDSVKGRFTISRDNARSMLYLHMSSLRSEDTAMYYCTRGWDENDLWGQGTTLTVSS
VL: MKLPVRLLVLMFWIPASSSDVVMTQTPLSLFVSLGDQASISCRSSQSLLYSNGNTYLHWYLQRPGQSPQLLIYKVSNRFSGVPDRFSGSGSGTDFTLKISRVEAEDLGVYFCSQTTHVPWTFGGGTKLEIK
modifications: R29-8-58C heavy chain variable region; R29-8-58C light chain variable region
B2: R29-7-2A: murine anti-C16orf54 monoclonal antibody, IgG2b; VH SEQ ID NO: 4, VL SEQ ID NO: 6 (antibody, V domains shown)
VH: MLLGLKWVFFVVFYQGVPCEVQLVESGGGLIQPKGSLKLSCVASGFSFNTHAMNWVRQAPGKGLEWVARIRSKSNNYARYYADSVKDRFTISRDDSQSILYLQMNNLKTEDTAMYYCVKQGDGGFAYWGQGTLVTVSA
VL: MDSQAQVLMLLLLWVSGTCGDIVMSQSPSSLAVSVGEKVTMSCKSSQSLLYSSNQKNYLAWYQQRPGQSPKLLIYWASARESGVPDRFTGSGSGTDFTLTISSVKAEDLAVYYCQQYYSYPPTFGAGTKVELK
modifications: R29-7-2A heavy chain variable region; R29-7-2A light chain variable region
B3: R29-8-75B: murine anti-C16orf54 monoclonal antibody; VH SEQ ID NO: 56, VL SEQ ID NO: 58 (antibody, V domains shown)
VH: MDSRLNLVFLVLILKGVQCDVQLVESGGGLVQPGGSRKLSCAASGFTFSRFGMHWVRQAPEKGLEWVAYISSGSSTIYYADTVKGRFTISRDNPKNTLFLQMTSLRSEDTAMYYCARVDYDVALAYWGQGTLVTVSA
VL: MKLPVRLLVLMFWIPASSSGVLMTQTPLSLPVSLGDQASISCRSSQSIVHRNGNTYLEWYLQKPGQSPKLLIYKVSNRFSGVPDRFSGSGSGTDFTLKISRVEAEDLGVYYCFQGSQWTFGGGTKLEIK
modifications: R29-8-75B heavy chain variable region; R29-8-75B light chain variable region

How the values were obtained:
cyno C16orf54 = test: Flow cytometry cross-reactivity with sarcoma cells expressing cyno C16orf54 (fold change over isotype); format: binding, cynomolgous monkeys; conditions: 10 μg/ml antibody
Sequence of cyno C16orf54 (as listed by the source): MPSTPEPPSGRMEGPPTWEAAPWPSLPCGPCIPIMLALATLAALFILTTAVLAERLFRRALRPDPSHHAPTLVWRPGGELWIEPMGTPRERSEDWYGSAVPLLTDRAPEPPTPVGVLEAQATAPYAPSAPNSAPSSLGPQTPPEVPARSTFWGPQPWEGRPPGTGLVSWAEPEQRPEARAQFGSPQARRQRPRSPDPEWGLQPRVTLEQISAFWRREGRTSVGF
Protocol: (§1) Anti-C16orf54 antibodies which bound to human C16orf54 were tested for their reactivity with human C16orf54 and their crossreactivity with C16orf54 from cynomolgous monkeys (cyno C16orf54) using flow cytometry. Sarcoma cells transfected with and expressing human C16orf54 or cyno C16orf54 were washed with PBS with 0.1% BSA, incubated with FcX receptor blocking solution (BioLegend) for 15 minutes, incubated with 10 μg/ml of anti-C16orf54 antibody for 1 hour at 4° C., washed twice with PBS with 0.1% BSA, incubated with 20 μg/ml of R-Phycoerythrin-AffiniPure F(ab′)2 Fragment Goat Anti-Mouse IgG, Fcγ Fragment Specific (Jackson ImmunoResearch) for 30 minutes at 4° C., washed twice with PBS with 0.1% BSA, incubated with the viability dye TO-PRO-3 iodide (Life Technologies), and immediately analyzed on a MACSQuant Analyzer instrument (Miltenyi). For each cell line and anti-C16orf54 antibody, a fold change was derived by dividing the median fluorescence intensity for Phycoerythrin in the live cell population for the anti-C16orf54 antibody by the median fluorescence intensity for Phycoerythrin in the live cell population for the IgG isotype control antibody.

C16orf54 ECD peptides = test: Peptide crossblocking (Table 36); format: binding
[1] = target: T1, human C16orf54 extracellular domain peptides; test: C16orf54 peptide ELISA, human extracellular domain peptides; format: binding; conditions: peptide ELISA, 10 μg/ml antibody
Protocol: (§2) Anti-C16orf54 antibodies which bind to human C16orf54, including antibodies that are crossreactive with cyno C16orf54, were tested for their binding to various peptides derived from C16orf54 in a peptide ELISA. A 384-well high binding black microplate (Greiner) was incubated with 2 μg/ml of protein (human, cyno, or mouse extracellular domain peptides) for 16 hours, incubated for 1 hr with a blocking buffer (PBS with 5% Fetal Bovine Serum), washed four times with TBS with Tween, incubated for 1 hour with 10 μg/ml of anti-C16orf54 antibody, washed four times with TBS with Tween, incubated for 1 hour with 10 μg/ml of Peroxidase-AffiniPure Goat Anti-Mouse IgG, Fcγ Fragment Specific (Jackson ImmunoResearch), washed four times with TBS with Tween, and peroxidase was detected with a luminometer (Molecular Devices) upon addition of SuperSignal® ELISA Pico Chemiluminescent Substrate (Thermo Scientific). The luminescence signal was determined.

[2] = tested on: human C16orf54 extracellular domain peptides; test: as above; format: binding; conditions: human, cyno, or mouse extracellular domain peptides, not told apart; 10 μg/ml antibody
Protocol: as §2

human C16orf54 = target: T2, human C16orf54; test: Flow cytometry reactivity with sarcoma cells expressing human C16orf54 (fold change over isotype); format: binding
Protocol: as §1

[3] = tested on: KG-1 (acute myeloid leukemia) xenograft; format: in vivo, NOD-SCID mice
Protocol: Subcutaneous tumors are generated by injection of 1×10^7 cancer cells in a mixture of PBS (without magnesium or calcium) and BD Matrigel™ (BD Biosciences) at a 1:1 ratio in the right flank of female SCID or nu^−/− mice. The injected total volume per mouse is […] with 50% being Matrigel (BD Biosciences). Mice are randomized once tumors reach a size between 65-200 mm^3. Antibodies are administered weekly, and body weights and tumors are measured once and twice weekly, respectively. Tumor volume is calculated as described (van der Horst et al. (2009) Neoplasia 11: 355-364). As a negative control, mice are injected with either purified mouse IgG or PBS; or a purified monoclonal antibody that recognizes an antigen other than C16orf54.
Anti-C16orf54 antibodies were tested for their anti-tumor activity in an animal-tumor model. For these studies, the cell line KG-1 (acute myeloid leukemia) was obtained from ATCC and cultured according to the suppliers' protocols. Animals were obtained from Taconic (Hudson, N.Y.). Studies were conducted with anti-C16orf54 antibodies and antibody-drug conjugates (ADCs) of these antibodies.
In these experiments, 4-6 week-old immunodeficient NOD-SCID female mice were used for the KG-1 tumor model. Mice were subcutaneously injected on the right flank with 6×10^6 viable cells (KG-1) in a mixture of PBS (without magnesium or calcium) and BD Matrigel™ (BD Biosciences). Once the tumor reached a size between 65-200 mm^3 mice were randomized. Anti-C16orf54 antibodies were administered weekly, and bodyweights and tumors were measured once and twice weekly, respectively. Tumor volume was calculated as described (van der Horst et al., supra). Experiments were performed on groups of at least eight animals per experimental point.
Statistical significance between treatment and control groups was calculated using the Graphpad Prism® software package and applying Student's two-tailed t-test. A p-value of less than 0.05 was considered significant.

[4] = target: T3, huC16orf54 (cells expressing C16orf54); test: Competition ELISA to establish relative binding properties; conditions: hybridoma supernatant; 2 hours with competing mixture of antibodies of a different isotype
Protocol: Another competition ELISA was performed to establish relative binding properties. Individual anti-huC16orf54 isotyped (e.g., IgG2a) antibody containing hybridoma supernatants were allowed to bind to huC16orf54 in individual wells of an ELISA plate containing cells expressing C16orf54. After 30 min, the wells were washed. Then individual wells of the ELISA plate were incubated for 2 hours with either buffer or a competing mixture of anti-huC16orf54 isotyped antibodies (of a different isotype, e.g., IgG1 and IgG2b in the case of an IgG2a antibody). After washing, the wells were incubated with a specific secondary antibody (for example, Jackson Immunologicals Goat×IgG2a HRP—Product#115-035-206) and detected with SuperSignal® ELISA Pico Chemiluminescent substrate (Thermo Scientific—Product#37069). For each anti-huC16orf54 isotyped (e.g., IgG2a) antibody containing hybridoma supernatant, relative binding properties were calculated as follows: [(Average luminescence in wells incubated with buffer)−(Average luminescence in wells incubated with mixture of anti-huC16orf54 isotyped antibodies of a different isotype)]/[(Average luminescence in wells incubated with buffer)].

[5] = target: T4, N-terminal 32 amino acids of huC16orf54; test: Off-rate screen of hybridoma supernatants on OctetQK384 (biolayer interferometry); format: binding; conditions: calculated off-rate
Protocol: Eight anti-huC16orf54 monoclonal antibodies were further screened for binding and subsequent off-rate analysis using the OctetQK384® sytem (ForteBio). Hybridoma supernatants were screened for association to and dissocation from streptavidin sensors coated with the N-terminal 32 amino acids of huC16orf54 coupled to biotin, and the calculated offrates (kdis) are shown in Table 31. Cloned hybridomas with […] off-rates were carried forward for antibody purification.

[6] = target: T4, N-terminal 32 amino acids of huC16orf54; test: Affinity measurements of purified antibodies on OctetQK384; format: binding; conditions: purified antibody, streptavidin sensors coated with N-terminal 32 amino acids of huC16orf54 coupled to biotin
Protocol: Affinity measurements of purified anti-huC16orf54 antibodies were carried out on the OctetQK384® sytem (ForteBio). After coating streptavidin sensors with the N-terminal 32 amino acids of huC16orf54 coupled to biotin at the C-terminus, association and dissociation of purified anti-huC16orf54 antibodies was monitored. KD values were derived using ForteBio's software.

[7] = tested on: cyno C16orf54 extracellular domain peptides; test: C16orf54 peptide ELISA, cyno extracellular domain peptides; format: binding; conditions: 10 μg/ml antibody
Sequence of cyno C16orf54 extracellular domain peptides (as listed by the source): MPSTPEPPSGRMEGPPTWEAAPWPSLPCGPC
Protocol: as §2

[8] = target: T5, extracellular domain of c16orf54 (amino acids 1-31) fused to human IgG1 Fc; test: C16orf54 peptide-Fc fusion protein ELISA; format: binding; conditions: serial dilution of antibody; HRP-conjugated anti mouse secondary
Protocol: Anti-C16orf54 antibodies which bind to human C16orf54, including antibodies that are crossreactive with cyno C16orf54, were tested for their binding to various peptides derived from C16orf54 that were fused to human IgG (e.g., IgG1) constant regions to generate various peptide-Fc fusion proteins in an Fc-based ELISA. An exemplary Fc sequence comprises an IgG1 Hinge region sequence and IgG1 CH3 and […] domain sequences.
The fusion proteins were transiently expressed in 293 T cells. Protein was purified from the 293 expression supernatants by Protein A-based affinity purification. Exemplary C16 peptide-Fc fusion constructs that were made and purified are shown with their protein yield in Table 38. ELISA assays were performed by coating 384 well plates with the fusion proteins overnight at 4C. Antibodies were analyzed by serial dilution with concentrations ranging from 40 ug/mL to […]. Binding was detected with an HRP-conjugated anti mouse secondary antibody.

Molecule | Median fold change relative to IgG control in F279-cyno-C16orf54 cells (cyno C16orf54) | Peptide crossblocking (C16orf54 ECD peptides) | Human ECD & ECD fragments bound by antibody [1] | binding to peptides derived from the extracellular domain of C16orf54 (peptide ELISA) [2] | binding to C16orf54-expressing cells (dual binders) (human C16orf54) | binding to human C16orf54 (flow cytometry) (human C16orf54; sarcoma cells expressing human C16orf54, 10 μg/ml antibody) | tumor growth inhibition (in words) ([3]; KG-1 xenograft, compared to control IgG, antibodies weekly) | TGI (tumor growth inhibition) ([3]; Table 42, KG-1 AML model, NOD-SCID mice, weekly administration) | Mean (tumor volume) ([3]; Table 42, KG-1 AML model, NOD-SCID mice, weekly administration, in mm³ (unit assumed)) | relative binding properties: signal loss upon incubation with competition mixture [4] | kdis [5] | kdis [6] | kon [6] | Cyno ECD bound by antibody [7] | binding to peptide-Fc fusion proteins (Fc-based ELISA) [8]
B1 | 1.4 | – | – | – | – | – | – | – | – | – | – | – | – | – | –
B2 | – | aa1-31 | aa1-31, aa1-15, aa9-24 | bind to the various peptides derived from the extracellular domain (ECD) of C16orf54 | bind to C16orf54-expressing cells | bind human C16orf54 | did not induce any statistically significant tumor growth inhibition | −17% | 2572.5 | little signal loss upon incubation with the competition mixture | 0.00707 s⁻¹ | 4.12e-05 ± 9.7e-06 s⁻¹ | 31900 ± 4600 M⁻¹ s⁻¹ | – | –
B3 | – | aa1-31, aa9-24 | aa1-31, aa1-15, aa9-24 | bind to the various peptides derived from the extracellular domain (ECD) of C16orf54 | bind to C16orf54-expressing cells | – | – | – | – | – | – | – | – | aa1-31 | able to bind to the peptide-Fc fusion proteins
